Reference: patent publication US20140087995A1 (published 2014)
Numbered stars: 1 amine (or outer) side, 2 acyl side, 3 side chain; on linkers, the order of the positions; unused ones are H or OH. Bridge positions count the residues as written; N and C are the ends. Side chains are listed from the residue outwards. Ends that are not written are not given here. * marks the point of attachment. C20 diacid = O=C(O)CCCCCCCCCCCCCCCCCCC(=O)*; γGlu = O=C(O)[C@H](CCC(=O)[*:2])N[*:1]

T1: rat calcitonin receptor (rat, UniProt P32214 25-516)
T1 construct: whole, on cells; Cell membranes of transiently transfected BHK tk'ts 13 cells (Assay VIII); also called rCTR; rCT
T1 sequence (looked up): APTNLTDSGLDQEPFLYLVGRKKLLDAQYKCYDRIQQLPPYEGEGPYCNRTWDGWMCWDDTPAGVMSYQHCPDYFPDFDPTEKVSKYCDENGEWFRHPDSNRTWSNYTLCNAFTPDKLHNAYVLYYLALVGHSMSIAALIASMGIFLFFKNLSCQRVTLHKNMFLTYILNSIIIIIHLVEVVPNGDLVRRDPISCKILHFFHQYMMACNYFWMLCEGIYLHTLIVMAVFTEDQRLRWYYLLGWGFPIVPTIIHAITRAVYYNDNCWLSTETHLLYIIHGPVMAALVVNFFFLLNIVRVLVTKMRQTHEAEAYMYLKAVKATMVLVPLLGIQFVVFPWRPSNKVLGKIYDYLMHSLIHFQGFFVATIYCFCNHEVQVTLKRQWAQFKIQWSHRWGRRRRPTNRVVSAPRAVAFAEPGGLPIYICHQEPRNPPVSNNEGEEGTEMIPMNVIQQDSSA

T2: human calcitonin receptor (human, UniProt P30988 25-474)
T2 construct: whole, on cells; Cell membranes of a stably transfected BHK cell line (Assay VII); also called hCTR; hCT
T2 sequence (looked up): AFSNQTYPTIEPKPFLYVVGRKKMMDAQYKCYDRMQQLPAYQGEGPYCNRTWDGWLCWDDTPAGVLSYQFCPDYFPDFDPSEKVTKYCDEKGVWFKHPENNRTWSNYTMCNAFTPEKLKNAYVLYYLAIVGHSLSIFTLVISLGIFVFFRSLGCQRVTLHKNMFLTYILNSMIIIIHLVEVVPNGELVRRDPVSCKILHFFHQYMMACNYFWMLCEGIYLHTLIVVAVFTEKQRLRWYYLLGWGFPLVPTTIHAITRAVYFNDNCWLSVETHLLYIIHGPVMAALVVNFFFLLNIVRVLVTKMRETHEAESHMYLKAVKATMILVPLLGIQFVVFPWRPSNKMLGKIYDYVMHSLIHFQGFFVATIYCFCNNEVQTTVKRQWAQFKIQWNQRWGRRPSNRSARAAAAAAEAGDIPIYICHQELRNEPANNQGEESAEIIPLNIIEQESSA

T3: rat amylin receptor (rat calcitonin receptor + rat RAMP 3) (rat, UniProt P32214 25-516; Q9JJ73 23-147)
T3 construct: whole, on cells; Cell membranes of transiently transfected BHK tk'ts 13 cells (Assay VI); also called rAmylin-R; rat amylin 3(a) receptor
T3 sequence (looked up) 1: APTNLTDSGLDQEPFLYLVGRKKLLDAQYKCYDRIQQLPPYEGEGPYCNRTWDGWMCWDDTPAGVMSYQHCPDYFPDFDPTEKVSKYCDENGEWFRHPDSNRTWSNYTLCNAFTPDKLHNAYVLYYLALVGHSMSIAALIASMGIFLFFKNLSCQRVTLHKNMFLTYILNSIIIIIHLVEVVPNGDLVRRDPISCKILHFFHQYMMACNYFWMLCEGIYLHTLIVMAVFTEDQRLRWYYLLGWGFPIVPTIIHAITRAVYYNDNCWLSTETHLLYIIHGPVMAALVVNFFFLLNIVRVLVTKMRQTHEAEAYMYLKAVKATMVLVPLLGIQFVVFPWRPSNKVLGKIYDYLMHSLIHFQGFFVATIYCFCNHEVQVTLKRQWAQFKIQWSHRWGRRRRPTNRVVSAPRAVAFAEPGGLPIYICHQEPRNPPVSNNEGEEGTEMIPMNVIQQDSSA
T3 sequence (looked up) 2: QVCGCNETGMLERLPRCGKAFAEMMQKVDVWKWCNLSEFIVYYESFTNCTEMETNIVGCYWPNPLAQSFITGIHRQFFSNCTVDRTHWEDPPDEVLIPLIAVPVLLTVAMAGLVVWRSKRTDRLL


Columns and labels:
rat calcitonin receptor [1] = target: T1, rat calcitonin receptor; experiment: ratio IC50 rat calcitonin receptor / IC50 rat amylin receptor
[2] = target: T2, human calcitonin receptor; experiment: ratio IC50 human calcitonin receptor / IC50 human amylin receptor
Description: The resulting pellet was resuspended, homogenized and centrifuged (20.000 rpm, 15 min) in a buffer containing 20 mM Na-HEPES and 0.1 mM EDTA (pH 7.4, buffer 2). The resulting pellet was resuspended in buffer 2 and protein concentration was measured (BCA protein Assay, Pierce). The homogenate was kept cold during the whole procedure. The membranes were kept at −80° C. until use. The assay was performed in a 384 well Optiplate (PerkinElmer) in a total volume of 40 ul. Membranes were mixed with SPA beads. Final concentration of membranes 35 ng/μL final and SPA beads was 0.05 mg/well. Test-compounds were dissolved in DMSO and further diluted in assay buffer (50 mM Hepes, pH 7.4, 1 mM CaCl2, 5 mM MgCl₂, 0.1% OA and 0.02% Tween20). […] The final mixture was incubated with shaking at 400 rpm for 120 min at 25° C. prior to centrifugation (1500 rpm, 10 min). Samples were analyzed on TopCounter™ (Packard). The IC₅₀ was calculated using (one site binding competition analysis) GraphPad Prism5 as a measure of receptor affinity.
Membranes were prepared in the following way; the cells were rinsed with PBS and incubated with Versene for approximately 5 min before harvesting. The cells were flushed with PBS and the cell-suspension was centrifuged for 5 min at 1000 rpm. Cells were homogenized (Ultrathurrax) in a buffer containing 20 mM Na-HEPES and 10 mM EDTA (pH 7.4) and centrifuged at 20.000 rpm for 15 min. The resulting pellet was resuspended, homogenized and centrifuged (20.000 rpm, 15 min) in a buffer containing 20 mM Na-HEPES and 0.1 mM EDTA (pH 7.4, buffer 2). The resulting pellet was resuspended in buffer 2 and protein concentration was measured (BCA protein Assay, Pierce). The homogenate was kept cold during the whole procedure. The membranes were kept at −80° C. until use. Assay was performed in a 384 well Optiplate (PerkinElmer) in a total volume of 40 ul. Membranes were mixed with SPA beads.

rat calcitonin receptor [3] = target: T1, rat calcitonin receptor; experiment: SPA competition vs 125I-calcitonin, membranes with rat CTR (Assay VIII)
[4] = target: T3, rat amylin receptor (rat calcitonin …); experiment: SPA competition vs 125I-rat amylin, membranes with rat CTR + rat RAMP3 (Assay VI)

Binder	Ratio rCT/rAmylin binding (rat calcitonin receptor [1])	Ratio hCT/hAmylin binding [2]	IC50 (rat calcitonin receptor [3]) [nM]	IC50 [4] [nM]
K([γGlu-C20 diacid])CNTATCATQRLANFLRHSSPNFGAIPSSTNVGSKTY-NH2 (disulfide 2-7; N-terminus assumed; SMILES CC[C@H](C)[C@H](NC(=O)[C@H](C)NC(=O)CNC(=O)[C@H](Cc1ccccc1)NC(=O)[C@H](CC(N)=O)NC(=O)[C@@H]1CCCN1C(=O)[C@H](CO)NC(=O)[C@H](CO)NC(=O)[C@H](Cc1c[nH]cn1)NC(=O)[C@H](CCCNC(=N)N)NC(=O)[C@H](CC(C)C)NC(=O)[C@H](Cc1ccccc1)NC(=O)[C@H](CC(N)=O)NC(=O)[C@H](C)NC(=O)[C@H](CC(C)C)NC(=O)[C@H](CCCNC(=N)N)NC(=O)[C@H](CCC(N)=O)NC(=O)[C@@H](NC(=O)[C@H](C)NC(=O)[C@@H]1CSSC[C@H](NC(=O)[C@@H](N)CCCCNC(=O)CC[C@H](NC(=O)CCCCCCCCCCCCCCCCCCC(=O)O)C(=O)O)C(=O)N[C@@H](CC(N)=O)C(=O)N[C@@H]([C@@H](C)O)C(=O)N[C@@H](C)C(=O)N[C@@H]([C@@H](C)O)C(=O)N1)[C@@H](C)O)C(=O)N1CCC[C@H]1C(=O)N[C@@H](CO)C(=O)N[C@@H](CO)C(=O)N[C@H](C(=O)N[C@@H](CC(N)=O)C(=O)N[C@H](C(=O)NCC(=O)N[C@@H](CO)C(=O)N[C@@H](CCCCN)C(=O)N[C@H](C(=O)N[C@@H](Cc1ccc(O)cc1)C(N)=O)[C@@H](C)O)C(C)C)[C@@H](C)O, Acylated analogue of human amylin; also called compound 35) [N^ε1-[(4S)-4-carboxy-4-(19-carboxynonadecanoylamino)butanoyl]-[Arg17,Pro21,Pro27,Lys35]-h-amylin]	65.1	50.3	61.7	0.948
{C20 diacid-γGlu}-KCNTATCATQRLAEFLRHSSPNFGAIPSSTNVGKNTY-NH2 (disulfide 2-7; SMILES CC[C@H](C)[C@H](NC(=O)[C@H](C)NC(=O)CNC(=O)[C@H](Cc1ccccc1)NC(=O)[C@H](CC(N)=O)NC(=O)[C@@H]1CCCN1C(=O)[C@H](CO)NC(=O)[C@H](CO)NC(=O)[C@H](Cc1c[nH]cn1)NC(=O)[C@H](CCCNC(=N)N)NC(=O)[C@H](CC(C)C)NC(=O)[C@H](Cc1ccccc1)NC(=O)[C@H](CCC(=O)O)NC(=O)[C@H](C)NC(=O)[C@H](CC(C)C)NC(=O)[C@H](CCCNC(=N)N)NC(=O)[C@H](CCC(N)=O)NC(=O)[C@@H](NC(=O)[C@H](C)NC(=O)[C@@H]1CSSC[C@H](NC(=O)[C@H](CCCCN)NC(=O)CC[C@H](NC(=O)CCCCCCCCCCCCCCCCCCC(=O)O)C(=O)O)C(=O)N[C@@H](CC(N)=O)C(=O)N[C@@H]([C@@H](C)O)C(=O)N[C@@H](C)C(=O)N[C@@H]([C@@H](C)O)C(=O)N1)[C@@H](C)O)C(=O)N1CCC[C@H]1C(=O)N[C@@H](CO)C(=O)N[C@@H](CO)C(=O)N[C@H](C(=O)N[C@@H](CC(N)=O)C(=O)N[C@H](C(=O)NCC(=O)N[C@@H](CCCCN)C(=O)N[C@@H](CC(N)=O)C(=O)N[C@H](C(=O)N[C@@H](Cc1ccc(O)cc1)C(N)=O)[C@@H](C)O)C(C)C)[C@@H](C)O, Acylated analogue of human amylin; also called compound 36)	32.4	15.7	60.1	1.86
K([γGlu-γGlu-C20 diacid])CNTATCATQRLADFLRHSSPNFGAPLSSTNVGSDTY-NH2 (disulfide 2-7; N-terminus assumed; SMILES CC(C)C[C@H](NC(=O)[C@H](CCCNC(=N)N)NC(=O)[C@H](CCC(N)=O)NC(=O)[C@@H](NC(=O)[C@H](C)NC(=O)[C@@H]1CSSC[C@H](NC(=O)[C@@H](N)CCCCNC(=O)CC[C@H](NC(=O)CC[C@H](NC(=O)CCCCCCCCCCCCCCCCCCC(=O)O)C(=O)O)C(=O)O)C(=O)N[C@@H](CC(N)=O)C(=O)N[C@@H]([C@@H](C)O)C(=O)N[C@@H](C)C(=O)N[C@@H]([C@@H](C)O)C(=O)N1)[C@@H](C)O)C(=O)N[C@@H](C)C(=O)N[C@@H](CC(=O)O)C(=O)N[C@@H](Cc1ccccc1)C(=O)N[C@@H](CC(C)C)C(=O)N[C@@H](CCCNC(=N)N)C(=O)N[C@@H](Cc1c[nH]cn1)C(=O)N[C@@H](CO)C(=O)N[C@@H](CO)C(=O)N1CCC[C@H]1C(=O)N[C@@H](CC(N)=O)C(=O)N[C@@H](Cc1ccccc1)C(=O)NCC(=O)N[C@@H](C)C(=O)N1CCC[C@H]1C(=O)N[C@@H](CC(C)C)C(=O)N[C@@H](CO)C(=O)N[C@@H](CO)C(=O)N[C@H](C(=O)N[C@@H](CC(N)=O)C(=O)N[C@H](C(=O)NCC(=O)N[C@@H](CO)C(=O)N[C@@H](CC(=O)O)C(=O)N[C@H](C(=O)N[C@@H](Cc1ccc(O)cc1)C(N)=O)[C@@H](C)O)C(C)C)[C@@H](C)O, Acylated analogue of human amylin; also called compound 1)	104	27.6	135	1.3
K([γGlu-γGlu-C20 diacid])CNTATCATQRLADFLRHSSPNFGAIPSSTNVGSDTY-NH2 (disulfide 2-7; N-terminus assumed; SMILES CC[C@H](C)[C@H](NC(=O)[C@H](C)NC(=O)CNC(=O)[C@H](Cc1ccccc1)NC(=O)[C@H](CC(N)=O)NC(=O)[C@@H]1CCCN1C(=O)[C@H](CO)NC(=O)[C@H](CO)NC(=O)[C@H](Cc1c[nH]cn1)NC(=O)[C@H](CCCNC(=N)N)NC(=O)[C@H](CC(C)C)NC(=O)[C@H](Cc1ccccc1)NC(=O)[C@H](CC(=O)O)NC(=O)[C@H](C)NC(=O)[C@H](CC(C)C)NC(=O)[C@H](CCCNC(=N)N)NC(=O)[C@H](CCC(N)=O)NC(=O)[C@@H](NC(=O)[C@H](C)NC(=O)[C@@H]1CSSC[C@H](NC(=O)[C@@H](N)CCCCNC(=O)CC[C@H](NC(=O)CC[C@H](NC(=O)CCCCCCCCCCCCCCCCCCC(=O)O)C(=O)O)C(=O)O)C(=O)N[C@@H](CC(N)=O)C(=O)N[C@@H]([C@@H](C)O)C(=O)N[C@@H](C)C(=O)N[C@@H]([C@@H](C)O)C(=O)N1)[C@@H](C)O)C(=O)N1CCC[C@H]1C(=O)N[C@@H](CO)C(=O)N[C@@H](CO)C(=O)N[C@H](C(=O)N[C@@H](CC(N)=O)C(=O)N[C@H](C(=O)NCC(=O)N[C@@H](CO)C(=O)N[C@@H](CC(=O)O)C(=O)N[C@H](C(=O)N[C@@H](Cc1ccc(O)cc1)C(N)=O)[C@@H](C)O)C(C)C)[C@@H](C)O, Acylated analogue of human amylin; also called compound 2)	366	47.5	108	0.295
